{
  "source": "patent US8329168",
  "tested_on": "Met-SC1-325-His-6 (fragment comprising residues 1-325 of staphylocoagulase with an additional Met at the NH2 terminus and a His tag fused to the COOH terminus)",
  "data": [
    {"substance": "IIQ320 (recombinant human prothrombin containing Gln in place of Arg-320)", "values": [
      {"measurement": "conformational activation (initial rates of S2238 hydrolysis)", "value": "Conformational activation of IIQ320 and its covalent inactivation with FPR-CH2Cl was accomplished by the addition of 43 µM Met-SC1-325-His-6"}
    ]}
  ]
}
